In this data set the target is T1, substrate S-1 (SEISY-EVEFRWKK).
T1 chain: SEISYEVEFRWKK

Several values for one entry are separate records, joined by “and”; a condition that tells them apart may be missing. Identical values can stand only once.

B1: BACE construct Asp2-2L-TM-His6 expressed in CHO cells (protein)
chain: TQHGIRLPLRSGLGGAPLGLRLPRETDEEPEEPGRRGSFVEMVDNLRGKSGQGYYVEMTVGSPPQTLNILVDTGSSNFAVGAAPHPFLHRYYQRQLSSTYRDLRKGVYVPYTQGKWEGELGTDLVSIPHGPNVTVRANIAAITESDKFFINGSNWEGILGLAYAEIARPDDSLEPFFDSLVKQTHVPNLFSLQLCGAGFPLNQSEVLASVGGSMIIGGIDHSLYTGSLWYTPIRREWYYEVIIVRVEINGQDLKMDCKEYNYDKSIVDSGTTNLRLPKKVFEAAVKSIKAASSTEKFPDGFWLGEQLVCWQAGTTPWNIFPVISLYLMGEVTNQSFRITILPQQYLRPVEDVATSQDDCYKFAISQSSTGTVMGAVIMEGFYVVFDRARKRIGFAVSACHVHDEFRTAAVEGPFVTLDMEDCGYNIPQTDESHHHHHH
For the protein B1, the Activity Assays (Fluorescence Peak Area) (fluorescence peak area) is 83.3 and 85.2 and 78.1.

B2: P33K-BACE expressed in E. coli from the pET11a-P33K-BACE construct (protein)
chain: MASMTGGQQMGRGSMAGVLPAHGTQHGIRLPLRSGLGGAPLGLRLPRETDEEPEEKGRRGSFVEMVDNLRGKSGQGYYVEMTVGSPPQTLNILVDTGSSNFAVGAAPHPFLHRYYQRQLSSTYRDLRKGVYVPYTQGKWEGELGTDLVSIPHGPNVTVRANIAAITESDKFFINGSNWEGILGLAYAEIARPDDSLEPFFDSLVKQTHVPNLFSLQLCGAGFPLNQSEVLASVGGSMIIGGIDHSLYTGSLWYTPIRREWYYEVIIVRVEINGQDLKMDCKEYNYDKSIVDSGTTNLRLPKKVFEAAVKSIKAASSTEKFPDGFWLGEQLVCWQAGTTPWNIFPVISLYLMGEVTNQSFRITILPQQYLRPVEDVATSQDDCYKFAISQSSTGTVMGAVIMEGFYVVFDRARKRIGFAVSACHVHDEFRTAAVEGPFVTLDMEDCGYNIPQTDES
In the case of B2, the Activity Assays (Fluorescence Peak Area) (fluorescence peak area) was 38.4 and 26.5 and 32.8; the “enzyme activity compared with BACE” value is recorded as “the P33K-BACE has essentially the same activity of BACE”.

B3: human BACE expressed in E. coli from pET11a-BACE, without the P33K mutation (protein)
chain: MASMTGGQQMGRGSMAGVLPAHGTQHGIRLPLRSGLGGAPLGLRLPRETDEEPEEPGRRGSFVEMVDNLRGKSGQGYYVEMTVGSPPQTLNILVDTGSSNFAVGAAPHPFLHRYYQRQLSSTYRDLRKGVYVPYTQGKWEGELGTDLVSIPHGPNVTVRANIAAITESDKFFINGSNWEGILGLAYAEIARPDDSLEPFFDSLVKQTHVPNLFSLQLCGAGFPLNQSEVLASVGGSMIIGGIDHSLYTGSLWYTPIRREWYYEVIIVRVEINGQDLKMDCKEYNYDKSIVDSGTTNLRLPKKVFEAAVKSIKAASSTEKFPDGFWLGEQLVCWQAGTTPWNIFPVISLYLMGEVTNQSFRITILPQQYLRPVEDVATSQDDCYKFAISQSSTGTVMGAVIMEGFYVVFDRARKRIGFAVSACHVHDEFRTAAVEGPFVTLDMEDCGYNIPQTDES
As to B3, the Activity Assays (Fluorescence Peak Area) (fluorescence peak area) is 31 and 45.8 and 31.9.

Source of the values: patent US20040005691.
